T1: human claudin-3 (Homo sapiens, UniProt O15551)
T1 sequence (O15551 1-220): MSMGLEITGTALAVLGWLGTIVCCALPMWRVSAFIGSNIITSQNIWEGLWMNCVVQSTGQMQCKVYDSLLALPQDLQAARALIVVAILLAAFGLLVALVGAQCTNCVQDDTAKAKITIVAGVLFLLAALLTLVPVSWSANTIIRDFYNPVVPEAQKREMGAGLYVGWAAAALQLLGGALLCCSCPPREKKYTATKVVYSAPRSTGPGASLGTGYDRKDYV

T2: human claudin-9 (Homo sapiens, UniProt O95484)
T2 sequence (O95484 1-217): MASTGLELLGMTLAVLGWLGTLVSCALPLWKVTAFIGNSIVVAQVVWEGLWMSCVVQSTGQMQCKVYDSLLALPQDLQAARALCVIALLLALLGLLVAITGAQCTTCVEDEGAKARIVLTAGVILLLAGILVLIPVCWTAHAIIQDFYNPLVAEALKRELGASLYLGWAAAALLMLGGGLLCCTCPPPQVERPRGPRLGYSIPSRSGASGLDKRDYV

T3: human claudin-4 (Homo sapiens, UniProt O14493)
T3 sequence (O14493 1-209): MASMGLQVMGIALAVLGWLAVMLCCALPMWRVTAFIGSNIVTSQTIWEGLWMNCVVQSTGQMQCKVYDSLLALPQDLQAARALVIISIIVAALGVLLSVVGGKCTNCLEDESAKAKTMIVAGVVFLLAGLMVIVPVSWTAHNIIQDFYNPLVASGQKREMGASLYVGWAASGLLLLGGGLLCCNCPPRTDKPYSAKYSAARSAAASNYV

T4: human claudin-1 (Homo sapiens, UniProt O95832)
T4 construct: made in house
T4 sequence (O95832 1-211): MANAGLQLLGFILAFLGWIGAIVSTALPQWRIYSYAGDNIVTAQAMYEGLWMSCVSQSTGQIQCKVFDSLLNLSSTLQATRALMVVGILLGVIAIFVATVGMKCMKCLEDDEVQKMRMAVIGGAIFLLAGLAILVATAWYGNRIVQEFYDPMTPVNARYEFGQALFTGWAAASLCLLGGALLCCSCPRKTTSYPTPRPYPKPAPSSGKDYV

T5: human claudin-4 (human, UniProt O14493 1-209, limits assumed)
T5 sequence (looked up): T3 sequence (O14493 1-209)

B1: C1C2-NP (C1C2 peptide conjugated to PEG diacid coated ultrasmall Gd nanoparticles) (peptide)
peptide: Ac-SSVSQSTGQIQSKVDSLLNLNSTQATR-NH2
modifications: not fully specified; also: conjugated by EDC-NHS chemistry to PEG diacid on Gd oxide nanoparticle surface (19 peptides per 3.5 nm particle)
notes: The protein part is the C1C2 peptide; the core is not a protein; also called C1C2-NPs; C1C2 NPs

Experiments:
human claudin-3 = molecular target: T1, human claudin-3; assay: Microscale thermophoresis (MST) binding; conditions: 0.1% beta-UDM buffer
Description: (§1) Human claudin-1 was expressed and purified as reported previously (Vecchio & Stroud, 2019, PNAS USA, 116:17817-24). MST measurements were performed using a Monolith instrument (NanoTemper Technologies). For experiments with human claudin-1, the assay buffer contained 10 mM Tris HCl, pH 8.0, 100 mM NaCl, 4% glycerol, and 0.04% n-Dodecyl-β-D-Maltopyranoside (β-DDM). NPs and peptides were labeled with AF647 prior to MST analysis as described above. For the binding experiments, the concentration of human claudin-1 was varied from 2.2-73,500 nM and the AF647-labeled C1C2-NP was fixed at 70 nM, while the AF647 labeled NPs and AF647 labeled C1C2 peptide were fixed at 1 and 0.3 μM, respectively. Binding of the AF647 labeled C1C2-NP to human claudin-3, -4, and -9 were tested using 0.4-14000 nM, 0.8-28000 nM, and 0.6-20000 nM, respectively; with the AF647 labeled C1C2-NP fixed at 70 nM. This assay buffer was similar, except β-DDM was replaced with 0.1% n-Undecyl-β-D-Maltopyranoside (beta-UDM). In order to check non-specific binding of β-DDM micelles to the AF647 labeled C1C2-NP, the concentration of beta-DDM was varied from 0.03-900 μM and the concentration of the AF647-labeled C1C2-NP was fixed at 1 μM. A similar experiment was performed wherein the concentration of beta-UDM was varied from 0.3-10,000 μM and the concentration of AF647-labeled control NP was fixed at 1 μM. The non-specific binding of human claudins 4 and 9 to the NP was examined by varying the concentrations of human claudins 4 and 9 from 0.7-20,100 nM and 0.8-31,100 nM, respectively. The human claudin sub-dilutions were mixed with the NPs or peptides and loaded in standard monolith NT.115 capillary tubes for measurement. All experiments were conducted at 23° C. using the nano-red channel of the Monolith instrument and the data were analyzed by using either Monolith analysis software or Graph Pad Prism, version 9 (Graph Pad Software, San Diego, California).

human claudin-9 = molecular target: T2, human claudin-9; assay: Microscale thermophoresis (MST) binding; conditions: 0.1% beta-UDM buffer
Description: as §1

human claudin-4 [1] = molecular target: T3, human claudin-4; assay: Microscale thermophoresis (MST) binding; conditions: 0.1% beta-UDM buffer
Description: as §1

human claudin-1 = molecular target: T4, human claudin-1; assay: In vitro immunofluorescence of NP binding in bEnd.3 cells transfected with human claudin-1 plasmid; type: cell-based; conditions: cells transfected to express human claudin-1; 4 hrs
Description: bEnd.3 cells were cultured according to the ATCC culture conditions in DMEM. These cells were subjected to ethanol (50 mM) treatment to induce claudin-1 expression and incubated with C1C2-NP for 4 hrs. For determining attachment of the C1C2-NP to human claudin-1, human claudin-1 encoded PCMV script plasmid was overexpressed in bEnd.3 cells and then incubated with C1C2-NP for 4 hrs.

human claudin-4 [2] = molecular target: T5, human claudin-4; assay: MST, sigmoidal dose-response fit (GraphPad Prism) of the FIG. 10A data, M is the unit of the concentration axis of panel A; confidence interval undefined [panel B]
Description: FIG. 10A is a graph showing binding of human claudins 3, 4 and 9 to C1C2-NPs using microscale thermophoresis. […] FIG. 10C is a graph showing the binding of human claudins 4 and 9 to control NPs monitored using microscale thermophoresis. […] Data fitting for human claudins 3, 4 and 9 were performed using Graph Pad Prism.
Human claudin-1 was expressed and purified as reported previously (Vecchio & Stroud, 2019, PNAS USA, 116:17817-24). MST measurements were performed using a Monolith instrument (NanoTemper Technologies). For experiments with human claudin-1, the assay buffer contained 10 mM Tris HCl, pH 8.0, 100 mM NaCl, 4% glycerol, and 0.04% n-Dodecyl-β-D-Maltopyranoside (β-DDM). NPs and peptides were labeled with AF647 prior to MST analysis as described above. For the binding experiments, the concentration of human claudin-1 was varied from 2.2-73,500 nM and the AF647-labeled C1C2-NP was fixed at 70 nM, while the AF647 labeled NPs and AF647 labeled C1C2 peptide were fixed at 1 and 0.3 μM, respectively. Binding of the AF647 labeled C1C2-NP to human claudin-3, -4, and -9 were tested using 0.4-14000 nM, 0.8-28000 nM, and 0.6-20000 nM, respectively; with the AF647 labeled C1C2-NP fixed at 70 nM. This assay buffer was similar, except β-DDM was replaced with 0.1% n-Undecyl-β-D-Maltopyranoside (beta-UDM).

Row | Binding to human claudin 3 (in words) (human claudin-3; listed as AF647-C1C2-NP) | Binding to human claudin 3 (in words) (human claudin-3; listed as C1C2-NPs) | Binding to human claudin 9 (in words) (human claudin-9; listed as AF647-C1C2-NP) | Binding to human claudin 9 (in words) (human claudin-9; listed as C1C2-NPs) | Binding to human claudin 4 (in words) (human claudin-4 [1]; listed as AF647-C1C2-NP) | Binding to human claudin 4 (in words) (human claudin-4 [1]; listed as C1C2-NPs) | Binding to bEnd.3 cells (human claudin-1) | EC50 (human claudin-4 [2]) | Molecule
1 | does not show any binding | undefined 95% confidence intervals | weak | the data did not fit | weak | undefined 95% confidence intervals | High NP binding |  | C1C2-NP: PEG diacid coated ultrasmall Gd NP conjugated with C1C2 peptide SSVSQSTGQIQSKVDSLLNLNSTQATR (SEQ ID NO: 6); claudin-1 targeted (Ac-SSVSQSTGQIQSKVDSLLNLNSTQATR-NH2; also: conjugated to PEG diacid coated ultrasmall Gd nanoparticle)
2 |  |  |  |  |  |  |  | 20.1 µM | B1
